Experimental data from PMC11997583.

Legend:
[1] = GFP/γH2AX colocalisation foci after damage, U2OS; conditions: glycan lost; control: GFP-YTHDC1-WT, no inhibitor
[2] = FRAP of GFP-YTHDC1 puncta, basal conditions; conditions: glycan lost; control: GFP-YTHDC1-WT
[3] = chromatin fractionation, anti-Flag blot, Zeocin, 293T; conditions: glycan lost; control: YTHDC1-WT
[4] = CCK-8 assay, Zeocin doses and durations; conditions: glycan lost; control: YTHDC1-WT
[5] = FRAP of GFP-YTHDC1 puncta, Zeocin vs untreated; conditions: glycan lost; control: GFP-YTHDC1-WT
[6] = GFP foci count after Zeocin or IR, U2OS; conditions: glycan lost; control: GFP-YTHDC1-WT
[7] = γH2AX foci count after Zeocin release; conditions: glycan lost; control: GFP-YTHDC1-WT
[8] = neutral comet assay after Zeocin; conditions: glycan lost; control: YTHDC1-WT rescue after siYTHDC1
[9] = Rad51/γH2AX co-staining after Zeocin, U2OS; conditions: glycan lost; control: YTHDC1-WT rescue after siYTHDC1

Substance	localisation_or_trafficking [1]	other: condensate dynamics (FRAP recovery) [2]	localisation_or_trafficking [3]	other: cell survival after Zeocin [4]	other: Zeocin-induced change in FRAP rate [5]	localisation_or_trafficking [6]	other: persisting γH2AX foci after damage [7]	other: DSB repair kinetics [8]	other: Rad51 recruitment to DSBs [9]
YTHDC1: OSMI-1	decreases								
YTHDC1: S396A	decreases	increases	abolishes	decreases	abolishes	decreases	increases	decreases	decreases
